Changes are numbered by the printed parent chain.
B1: 591 (protein)
chain: LDNGLARTPTMGWLHWERFMCNLDCQEEPDSCISEKLFMEMAERMVSEGWKDAGYEYLCIDDCWMAPQRDSEGRLQADPQRFPHGIRQLANHVHSKGLKLGIYADVGNKTCAGFPGSFGYYDIDAQTFADWGVDLLKFDGCYCDSLENLADGYKHMSLALNRTGRSIVYSCEWPLYMWPFQKPNYTEIKQYCNHWRNFADIDDSWASIKSILDWTSRNQERIVDVAGPGGWNDPDMLVIGNFGLSWDQQVTQMALWAIMAAPLFMSNDLRHISPQAKALLQDKDVIAINQDPLGKQGYQLRKGDNFEVWERPLSGDAWAVAIINRQEIGGPRSYTIPVASLGKGVACNPACFITQLLPVKRQLGFYNWTSRLKSHINPTGTVLLQLENTMQMSLKDLL
modifications: Synthetic Polypeptide sequence of Variant No. 591 of mature Human GLA
B2: 596 (protein)
chain: B1 chain with T186G, K189R
modifications: Synthetic Polypeptide sequence of Variant No. 596 of mature Human GLA
B3: 597 (protein)
chain: B1 chain with T186V, K189R
modifications: Synthetic Polypeptide sequence of Variant No. 597 of mature Human GLA
B4: 601 (protein)
chain: B1 chain with M39C, K189R
modifications: Synthetic Polypeptide sequence of Variant No. 601 of mature Human GLA
B5: 593 (protein)
chain: B1 chain with S95A, K189R
modifications: Synthetic Polypeptide sequence of Variant No. 593 of mature Human GLA
B6: 521 (protein)
chain: B1 chain with D52N, K189R
modifications: Synthetic Polypeptide sequence of Variant No. 521 of mature Human GLA
B7: 598 (protein)
chain: B1 chain with Y120H, K189R
modifications: Synthetic Polypeptide sequence of Variant No. 598 of mature Human GLA
B8: 594 (protein)
chain: B1 chain with S95E, K189R
modifications: Synthetic Polypeptide sequence of Variant No. 594 of mature Human GLA
B9: 592 (protein)
chain: B1 chain with K189V
modifications: Synthetic Polypeptide sequence of Variant No. 592 of mature Human GLA
B10: 600 (protein)
chain: B1 chain with Y120S, K189R, L341F
modifications: Synthetic Polypeptide sequence of Variant No. 600 of mature Human GLA
B11: 595 (protein)
chain: B1 chain with T186A, K189R
modifications: Synthetic Polypeptide sequence of Variant No. 595 of mature Human GLA
B12: 599 (protein)
chain: B1 chain with Y120S, K189R
modifications: Synthetic Polypeptide sequence of Variant No. 599 of mature Human GLA

How the values were obtained:
Format in all cases: biochemical
[1] = HTP-analysis of supernatants pretreated with acid (MUGal hydrolysis); conditions: activity of the variant/activity of Rd3BB (SEQ ID NO: 13); challenge at pH 3.7
Outline: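 Yeast INVSc1 supernatant, GLA variants; acid challenge: McIlvaine pH 3.3-4.3, 37° C., 1-3 h. Assay: MUGal in McIlvaine pH 4.8 plus citrate pH 4.3, 37° C., 30-180 min, Na2CO3 stop, Ex 355/Em 448 nm.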

[2] = HTP-analysis of yeast culture supernatants, no challenge (MUGal hydrolysis); conditions: activity of the variant/activity of Rd3BB (SEQ ID NO: 13)
Outline: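 GLA variants expressed in yeast INVSc1, secreted into SD-Ura broth over 66-84 h at 30° C; clarified supernatants tested without challenge. Supernatant mixed with McIlvaine buffer pH 4.8 and 2 mM MUGal (citrate/KCl, pH 4.6), 37° C for 30-180 min, carbonate-quenched, fluorescence Ex 355/Em 448 nm.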

[3] = HTP-analysis of supernatants pretreated with base (MUGal hydrolysis); conditions: activity of the variant/activity of Rd3BB (SEQ ID NO: 13); challenge at pH 9.7
Outline: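 GLA variants were secreted by transformed INVSc1 yeast grown 66-84 h at 30° C. Supernatants were exposed to neutral-to-basic buffers (pH 7.0-9.7) at 37° C for 1-18 h, then assayed with MUGal in acidic citrate/McIlvaine buffer, with fluorescence read after quenching.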

Row | Molecule | Relative Activity of GLA Variants After Challenge at pH 3.7 [1] | Relative Activity of GLA Variants After No Challenge (NC) [2] | Relative Activity of GLA Variants After Challenge at pH 9.7 [3]
1 | B1 | + (+ = 1.5 to 5 relative activity over Rd3BB (SEQ ID NO: 13)) | + (+ = 1.5 to 5 relative activity over Rd3BB (SEQ ID NO: 13)) | ++ (++ = >5 to 10 relative activity over Rd3BB (SEQ ID NO: 13))
2 | B2 | ++ (++ = >5 to 10 relative activity over Rd3BB (SEQ ID NO: 13)) | + (+ = 1.5 to 5 relative activity over Rd3BB (SEQ ID NO: 13)) | ++ (++ = >5 to 10 relative activity over Rd3BB (SEQ ID NO: 13))
3 | B3 | − (− = <1.5 relative activity to Rd3BB (SEQ ID NO: 13)) | + (+ = 1.5 to 5 relative activity over Rd3BB (SEQ ID NO: 13)) | + (+ = 1.5 to 5 relative activity over Rd3BB (SEQ ID NO: 13))
4 | B4 | + (+ = 1.5 to 5 relative activity over Rd3BB (SEQ ID NO: 13)) | − (− = <1.5 relative activity to Rd3BB (SEQ ID NO: 13)) | + (+ = 1.5 to 5 relative activity over Rd3BB (SEQ ID NO: 13))
5 | B5 | + (+ = 1.5 to 5 relative activity over Rd3BB (SEQ ID NO: 13)) | + (+ = 1.5 to 5 relative activity over Rd3BB (SEQ ID NO: 13)) | ++ (++ = >5 to 10 relative activity over Rd3BB (SEQ ID NO: 13))
6 | B6 | + (+ = 1.5 to 5 relative activity over Rd3BB (SEQ ID NO: 13)) | + (+ = 1.5 to 5 relative activity over Rd3BB (SEQ ID NO: 13)) | ++ (++ = >5 to 10 relative activity over Rd3BB (SEQ ID NO: 13))
7 | B7 | + (+ = 1.5 to 5 relative activity over Rd3BB (SEQ ID NO: 13)) | + (+ = 1.5 to 5 relative activity over Rd3BB (SEQ ID NO: 13)) | ++ (++ = >5 to 10 relative activity over Rd3BB (SEQ ID NO: 13))
8 | B8 | + (+ = 1.5 to 5 relative activity over Rd3BB (SEQ ID NO: 13)) | + (+ = 1.5 to 5 relative activity over Rd3BB (SEQ ID NO: 13)) | ++ (++ = >5 to 10 relative activity over Rd3BB (SEQ ID NO: 13))
9 | B9 | + (+ = 1.5 to 5 relative activity over Rd3BB (SEQ ID NO: 13)) | + (+ = 1.5 to 5 relative activity over Rd3BB (SEQ ID NO: 13)) | ++ (++ = >5 to 10 relative activity over Rd3BB (SEQ ID NO: 13))
10 | B10 | +++ (+++ = >10 relative activity over Rd3BB (SEQ ID NO: 13)) | + (+ = 1.5 to 5 relative activity over Rd3BB (SEQ ID NO: 13)) | + (+ = 1.5 to 5 relative activity over Rd3BB (SEQ ID NO: 13))
11 | B11 | + (+ = 1.5 to 5 relative activity over Rd3BB (SEQ ID NO: 13)) | + (+ = 1.5 to 5 relative activity over Rd3BB (SEQ ID NO: 13)) | + (+ = 1.5 to 5 relative activity over Rd3BB (SEQ ID NO: 13))
12 | B12 | + (+ = 1.5 to 5 relative activity over Rd3BB (SEQ ID NO: 13)) | + (+ = 1.5 to 5 relative activity over Rd3BB (SEQ ID NO: 13)) | ++ (++ = >5 to 10 relative activity over Rd3BB (SEQ ID NO: 13))

— patent US11278600B2, “Human alpha-galactosidase variants” (Codexis, Inc., priority 2014, dated 2022)
